According to article PMC8660796, “Structural and molecular basis for Cardiovirus 2A protein as a viral gene expression switch”:

Legend:
[1] = target: T1, EMCV 2A wild type (Encephalomyocarditis virus (EMCV), UniProt P12296 902-1044); assay: MST; labelled 2A; MST: 50 mM Tris-HCl pH 7.8, 150 mM NaCl, 10 mM MgCl2, 2 mM DTT, 0.05% Tween 20, 25 C; EMSA: 10 mM Tris-HCl pH 7.4, ~140 mM salt, 2 mM Mg acetate, 1 mM DTT, 5% glycerol, 100 ug/mL tRNA, 37 C; ITC: 50 mM Tris-HCl pH 7.4, 400 mM NaCl, 25 C; tweezers: 20 mM HEPES pH 7.6, 300 mM KCl, 5 mM MgCl2, 5 mM DTT, 0.05% Tween; settings: protein: recombinant; tags: C-terminal GlySerLysHis6; label: 5' fluorophore (Dylight 650 in MST, A647/Cy5 in EMSA); unlabelled when 2A is labelled; stem-loop
T1 sequence: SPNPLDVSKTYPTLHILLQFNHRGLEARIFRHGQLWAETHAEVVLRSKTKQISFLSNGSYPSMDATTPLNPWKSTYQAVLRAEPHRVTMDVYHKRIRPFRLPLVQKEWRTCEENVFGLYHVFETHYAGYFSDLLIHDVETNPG

[2] = target: T1, EMCV 2A wild type; assay: EMSA; MST: 50 mM Tris-HCl pH 7.8, 150 mM NaCl, 10 mM MgCl2, 2 mM DTT, 0.05% Tween 20, 25 C; EMSA: 10 mM Tris-HCl pH 7.4, ~140 mM salt, 2 mM Mg acetate, 1 mM DTT, 5% glycerol, 100 ug/mL tRNA, 37 C; ITC: 50 mM Tris-HCl pH 7.4, 400 mM NaCl, 25 C; tweezers: 20 mM HEPES pH 7.6, 300 mM KCl, 5 mM MgCl2, 5 mM DTT, 0.05% Tween; settings: protein: recombinant; tags: C-terminal GlySerLysHis6; label: 5' Cy5
[3] = target: T1, EMCV 2A wild type; assay: EMSA; binding restored; MST: 50 mM Tris-HCl pH 7.8, 150 mM NaCl, 10 mM MgCl2, 2 mM DTT, 0.05% Tween 20, 25 C; EMSA: 10 mM Tris-HCl pH 7.4, ~140 mM salt, 2 mM Mg acetate, 1 mM DTT, 5% glycerol, 100 ug/mL tRNA, 37 C; ITC: 50 mM Tris-HCl pH 7.4, 400 mM NaCl, 25 C; tweezers: 20 mM HEPES pH 7.6, 300 mM KCl, 5 mM MgCl2, 5 mM DTT, 0.05% Tween; settings: protein: recombinant; tags: C-terminal GlySerLysHis6; label: 5' Cy5; pseudoknot-like

Binder: AGCGGCAGUGUCAUCAAUGGCUCAAACCCUACUGCCGAA (structured_RNA) [EMCV 4]
- binding result [1]: no binding

B1: EMCV 3 G7C (structured_RNA)
RNA: GGGUUUUUCAGACUCAACGAGCGGCAGUGUCAUCAAUGGCUCAAACCCUACUGCCGAA
- binding result [2]: no binding

B2: EMCV 3 G7C+C37G (structured_RNA)
RNA: GGGUUUUUCAGACUCAACGAGCGGCAGUGUCAUCAAUGGCUCAAACCGUACUGCCGAA
- binding result [3]: binds

B3: EMCV 3 C37G (structured_RNA)
RNA: GGGUUUUUCAGACUCAAGGAGCGGCAGUGUCAUCAAUGGCUCAAACCGUACUGCCGAA
- binding result [2]: no binding
